From paper PMC8466245 come the findings set out here.

Experiment [1] deals with Glycymeris yessoensis lectin (GYL) (Glycymeris yessoensis). Kind of experiment: MALDI-TOF mass spectrometry; Ultraflex III MALDI-TOF/TOF; singly charged ions of the subunit and of the subunit dimer.
For experiment [2] the target is unchanged. Briefly: SDS-PAGE without and with DTT; 15% separation gel, in the absence and presence of 10 mM DTT; disulfide-linked (covalent) dimer to subunits.

As for “Glycymeris yessoensis lectin (GYL) (natural protein)”, the stoichiometry N in experiment [1] and in experiment [2] was 2 each time.
